Test results taken from patent publication US20210253718A1, “FRIZZLED5 PROTEIN-BINDING AGENTS” (Modmab Therapeutics Corporation, priority 2016, published 2021).

Columns and labels:
FZD1 CRD = biological target: T1, FZD1 CRD (Homo sapiens, UniProt Q9UP38); assay: Immunofluorescence of anti-FZD5 Fab binding to CHO cells overexpressing Frizzled CRD; design: key: −: no binding; +: very weak binder; ++: weak binder; +++: good binder; ++++: very good binder
T1 construct: D112-P238; GPI anchor signal (C); expressed in transfected cells; host or cells: CHO cells, lentiviral pLenti-puro
Method in brief: (§1)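 CHO lines each stably expressing one human Frizzled CRD as a myc-tagged, GPI-anchored cell-surface cassette (FZD_CRD-MYC-GPI, lentiviral pLenti-puro) were probed with anti-FZD5 Fabs. Binding was read by immunofluorescence, alongside flow cytometry, across the 10-member panel.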

FZD6 CRD = biological target: T2, FZD6 CRD (Homo sapiens, UniProt O60353); assay: as above; design: key: −: no binding; +: very weak binder; ++: weak binder; +++: good binder; ++++: very good binder
T2 construct: S20-P146; GPI anchor signal (C); expressed in transfected cells; host or cells: CHO cells, lentiviral pLenti-puro
T2 sequence (O60353 20-146): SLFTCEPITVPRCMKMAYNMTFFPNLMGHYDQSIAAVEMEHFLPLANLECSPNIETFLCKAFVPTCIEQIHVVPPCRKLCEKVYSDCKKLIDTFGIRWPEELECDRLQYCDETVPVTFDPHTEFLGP
Method in brief: as §1

FZD5 CRD = biological target: T3, FZD5 CRD (Homo sapiens, UniProt Q13467); assay: as above; design: key: −: no binding; +: very weak binder; ++: weak binder; +++: good binder; ++++: very good binder
T3 construct: K29-T156; GPI anchor signal (C); expressed in transfected cells; host or cells: CHO cells, lentiviral pLenti-puro
T3 sequence (Q13467 29-156): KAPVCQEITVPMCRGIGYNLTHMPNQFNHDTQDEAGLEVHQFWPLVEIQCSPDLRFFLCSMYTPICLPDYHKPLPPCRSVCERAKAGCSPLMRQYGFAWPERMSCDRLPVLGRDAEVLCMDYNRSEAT
Method in brief: as §1

FZD4 CRD = biological target: T4, FZD4 CRD (Homo sapiens, UniProt Q9ULV1); assay: as above; design: key: −: no binding; +: very weak binder; ++: weak binder; +++: good binder; ++++: very good binder
T4 construct: E42-V167; GPI anchor signal (C); expressed in transfected cells; host or cells: CHO cells, lentiviral pLenti-puro
T4 sequence (Q9ULV1 42-167): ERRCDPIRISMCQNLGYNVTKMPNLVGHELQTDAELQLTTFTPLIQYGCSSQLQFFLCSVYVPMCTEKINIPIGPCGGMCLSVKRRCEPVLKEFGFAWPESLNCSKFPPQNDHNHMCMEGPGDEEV
Method in brief: as §1

FZD3 CRD = biological target: T5, FZD3 CRD (Homo sapiens, UniProt Q9NPG1); assay: as above; design: key: −: no binding; +: very weak binder; ++: weak binder; +++: good binder; ++++: very good binder
T5 construct: CRD of FZD1, FZD2, FZD3, FZD4, FZD5, FZD6, FZD7, FZD8, FZD9 or FZD10; GPI anchor signal (C); expressed in transfected cells; host or cells: CHO cells, lentiviral pLenti-puro
T5 sequence (Q9NPG1 23-136 limits assumed): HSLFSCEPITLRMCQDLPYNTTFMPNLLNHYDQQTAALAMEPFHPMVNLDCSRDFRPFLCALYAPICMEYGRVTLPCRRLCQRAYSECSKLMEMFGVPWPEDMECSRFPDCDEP
Method in brief: as §1

RWP1 cells [1] = assay: Effect of anti-FZD5 Fabs on proliferation of pancreatic cancer cell lines (percent growth inhibition); format: cell-based, human; conditions: Fab 10 μg/ml
Experimental: (§2) The effect of presently disclosed anti-FZD5 Fabs on proliferation of RNF43 loss-of-function mutant pancreatic cancer cell lines HPAFII, PATU8988S and ASPC-1; and on pancreatic cancer cell line RWP1, was tested at […] and 10 μg/ml.

PATU8988S cells = assay: as above; format: cell-based, human; conditions: Fab 10 μg/ml
Experimental: as §2

HPAFII cells = assay: as above; format: cell-based, human
Experimental: as §2

ASPC-1 cells [2] = assay: as above; format: cell-based, human; conditions: Fab 10 μg/ml
Experimental: as §2

RWP1 cells [3] = assay: as above; format: cell-based, human; conditions: Fab 2 μg/ml
ASPC-1 cells [4] = assay: as above; format: cell-based, human; conditions: Fab 2 μg/ml

B1: Fab-2926: anti-FZD5 Fab with antibody variable region Fv-2926; CDR SEQ ID NOs: 35, 36, 65, 103, 141, 173 (antibody, V domains shown)
VH: EVQLVESGGGLVQPGGSLRLSCAASGFNIYSSYMHWVRQAPGKGLEWVASIYPSSSSTSYADSVKGRFTISADTSKNTAYLQMNSLRAEDTAVYYCARGGLDYWGQGTLVTVSS
VL: DIQMTQSPSSLSASVGDRVTITCRASQSVSSAVAWYQQKPGKAPKLLIYSASSLYSGVPSRFSGSRSGTDFTLTISSLQPEDFATYYCQQWYHGGSLFTFGQGTKVEIK
Immunofluorescence binding, Frizzled CRD overexpressed on CHO cells: FZD1 (FZD1 CRD): − | Immunofluorescence binding, Frizzled CRD overexpressed on CHO cells: FZD6 (FZD6 CRD): − | Immunofluorescence binding, Frizzled CRD overexpressed on CHO cells: FZD5 (FZD5 CRD): ++++ | Immunofluorescence binding, Frizzled CRD overexpressed on CHO cells: FZD4 (FZD4 CRD): − | Immunofluorescence binding, Frizzled CRD overexpressed on CHO cells: FZD3 (FZD3 CRD): − | percent growth inhibition, RWP1 10 μg/ml (RWP1 cells [1]): 40.20% | percent growth inhibition, PATU8988s 10 μg/ml (PATU8988S cells): −36.54% | percent growth inhibition, HPAFII 2 μg/ml (HPAFII cells; Fab 2 μg/ml): −6.88% | percent growth inhibition, HPAFII 10 μg/ml (HPAFII cells; Fab 10 μg/ml): 4.88% | percent growth inhibition, ASPC-1 10 μg/ml (ASPC-1 cells [2]): 24.71% | percent growth inhibition, RWP1 2 μg/ml (RWP1 cells [3]): 37.95% | percent growth inhibition, ASPC-1 2 μg/ml (ASPC-1 cells [4]): 17.27%
